Experimental findings from paper PMC5912465 are described below.

The target of this assay is CCL8 (human chemokine panel) (human) (UniProt P80075).
Sequence of CCL8 (human chemokine panel) (human) (P80075 24-99): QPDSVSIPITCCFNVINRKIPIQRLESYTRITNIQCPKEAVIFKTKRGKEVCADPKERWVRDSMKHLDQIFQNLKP

The substance “P672(1_44)-EVA1(29_94) hybrid evasin (from UniProt L7MC74;P0C8E7)” yielded an IC50 of neutralization of CCL8-induced THP-1 monocyte cell migration (EC80 dose of CCL8) of 48 nM.
